The labels stand for the following.
T1: BoNT/D (Clostridium botulinum, UniProt P19321 2-1276)
T1 sequence: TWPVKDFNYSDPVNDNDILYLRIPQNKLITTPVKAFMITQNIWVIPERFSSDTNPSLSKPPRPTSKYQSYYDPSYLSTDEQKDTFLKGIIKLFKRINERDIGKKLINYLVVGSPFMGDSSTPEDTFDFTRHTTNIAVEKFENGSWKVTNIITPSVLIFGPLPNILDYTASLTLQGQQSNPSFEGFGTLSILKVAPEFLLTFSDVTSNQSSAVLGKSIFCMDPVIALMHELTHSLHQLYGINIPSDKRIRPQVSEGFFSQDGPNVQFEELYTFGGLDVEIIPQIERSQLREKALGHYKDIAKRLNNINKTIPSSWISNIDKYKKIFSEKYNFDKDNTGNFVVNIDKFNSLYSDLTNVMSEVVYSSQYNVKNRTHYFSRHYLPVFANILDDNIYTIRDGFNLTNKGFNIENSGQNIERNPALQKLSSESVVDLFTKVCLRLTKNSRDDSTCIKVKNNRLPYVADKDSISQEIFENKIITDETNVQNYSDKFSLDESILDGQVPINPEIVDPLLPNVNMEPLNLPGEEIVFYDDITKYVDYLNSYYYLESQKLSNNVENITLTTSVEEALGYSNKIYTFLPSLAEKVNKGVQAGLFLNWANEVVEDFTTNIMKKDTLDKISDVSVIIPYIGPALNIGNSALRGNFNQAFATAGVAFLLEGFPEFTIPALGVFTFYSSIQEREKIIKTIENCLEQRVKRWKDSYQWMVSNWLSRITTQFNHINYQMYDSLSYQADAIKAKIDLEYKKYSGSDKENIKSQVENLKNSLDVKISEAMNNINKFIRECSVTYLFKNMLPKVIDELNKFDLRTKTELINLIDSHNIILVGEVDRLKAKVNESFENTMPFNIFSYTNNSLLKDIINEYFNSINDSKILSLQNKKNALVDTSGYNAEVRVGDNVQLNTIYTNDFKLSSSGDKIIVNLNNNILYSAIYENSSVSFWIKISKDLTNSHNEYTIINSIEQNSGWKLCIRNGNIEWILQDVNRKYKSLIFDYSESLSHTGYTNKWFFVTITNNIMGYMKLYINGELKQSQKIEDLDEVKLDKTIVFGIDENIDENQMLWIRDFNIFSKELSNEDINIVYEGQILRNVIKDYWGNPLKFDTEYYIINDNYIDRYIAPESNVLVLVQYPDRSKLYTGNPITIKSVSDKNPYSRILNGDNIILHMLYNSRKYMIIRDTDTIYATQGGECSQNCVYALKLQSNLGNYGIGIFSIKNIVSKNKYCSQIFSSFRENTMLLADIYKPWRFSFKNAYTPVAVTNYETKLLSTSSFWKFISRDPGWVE

T2: BoNT/C1 holotoxin (Clostridium botulinum, UniProt P18640 2-1291)
T2 sequence: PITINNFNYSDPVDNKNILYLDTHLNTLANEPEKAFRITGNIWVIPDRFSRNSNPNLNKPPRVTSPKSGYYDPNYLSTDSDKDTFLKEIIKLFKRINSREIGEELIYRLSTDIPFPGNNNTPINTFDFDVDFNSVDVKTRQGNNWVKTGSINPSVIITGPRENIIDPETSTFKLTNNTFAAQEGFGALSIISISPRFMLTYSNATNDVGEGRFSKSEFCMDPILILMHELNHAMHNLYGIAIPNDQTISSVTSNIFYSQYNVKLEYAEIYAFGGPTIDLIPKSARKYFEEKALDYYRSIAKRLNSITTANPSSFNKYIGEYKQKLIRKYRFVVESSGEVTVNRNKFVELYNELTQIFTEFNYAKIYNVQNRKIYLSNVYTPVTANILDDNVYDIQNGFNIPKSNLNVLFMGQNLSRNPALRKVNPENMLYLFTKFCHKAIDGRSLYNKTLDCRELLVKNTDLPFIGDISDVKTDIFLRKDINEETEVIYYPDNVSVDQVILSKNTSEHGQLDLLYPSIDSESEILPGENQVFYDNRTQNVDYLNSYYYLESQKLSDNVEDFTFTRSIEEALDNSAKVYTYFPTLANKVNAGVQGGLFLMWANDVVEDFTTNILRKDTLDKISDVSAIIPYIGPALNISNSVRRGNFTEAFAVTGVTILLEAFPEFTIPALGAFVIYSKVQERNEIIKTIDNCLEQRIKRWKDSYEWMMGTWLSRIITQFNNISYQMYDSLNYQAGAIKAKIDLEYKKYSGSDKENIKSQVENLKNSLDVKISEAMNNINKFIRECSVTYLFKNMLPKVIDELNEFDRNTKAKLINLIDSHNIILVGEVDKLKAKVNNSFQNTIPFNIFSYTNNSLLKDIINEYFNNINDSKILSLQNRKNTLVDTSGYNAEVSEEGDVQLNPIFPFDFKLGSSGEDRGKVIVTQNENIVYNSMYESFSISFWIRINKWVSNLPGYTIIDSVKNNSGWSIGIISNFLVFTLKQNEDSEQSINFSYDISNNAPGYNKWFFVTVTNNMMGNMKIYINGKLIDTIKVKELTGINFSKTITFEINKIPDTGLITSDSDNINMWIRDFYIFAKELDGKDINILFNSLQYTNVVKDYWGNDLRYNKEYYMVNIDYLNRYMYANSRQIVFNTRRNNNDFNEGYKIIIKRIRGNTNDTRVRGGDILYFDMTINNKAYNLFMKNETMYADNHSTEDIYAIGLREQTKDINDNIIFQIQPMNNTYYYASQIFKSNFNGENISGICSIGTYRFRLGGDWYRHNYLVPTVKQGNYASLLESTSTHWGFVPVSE

B1: 8DC15 scFv (scFv, V domains shown)
VH: QVQLQESGPGLLKPSQTLSLTCSVSGGSMITGGYYWTWVRQLPGKGLEWIGHVYYTGKTYYNPSLNGRFTIAIDTSKNQFSLNLNSVTATDTAVFYCARAIWGGWYFDLWGQGTLVTVSS
VL: DIQMTQSPSSLSASVGDRITITCRASRDIRDDLAWYQQKPGKAPKLLIYAASSLQSGVPSRFSGSGSGTEFTLTISSLQPEDFATYYCQQANSFPLTFGGGTKVDIK
notes: human
B2: 8DC8.6 scFv (scFv, V domains shown)
VH: QVQLQQSGPGLVKPSETLSLTCTVSGGSISSAGYSWSWIRQSPGKGLECLGYIYQTGSTFYNLSLKGRVTMSLDRSKNQISLRLTSVVAADTAVYYCARVVGVYPGWFDSWGQGTLVTVSS
VL: DIQMTQSPSSLSASVGDRVTITCRASQGVSTDLAWYQQKPGRAPKLLIYRASSLQSGVPSRFSGSGSGTDFTLTISSLQPDDLATYYCQHYESYSPWTFGQGTQGEIK
notes: human
B3: 87C1 scFv (scFv, V domains shown)
VH: QVQLQQSGGGVVQPGRSLRLSCAGSGFTLSTYGMHWVRQAPGKGLEWVAVISNDGSKEYYADSVKGRFAISRDNSKNTLSLQMNGLRAEDTAIYYCAKAIKSYSTIGGACNLWGQGTMVTVSS
VL: DIVMTQSPSFLSASVGDRVTITCRASQSISSYLNWYQQKPGKAPKLLIYAASSLQSGVPSRFSGSRSGTYFTLTISSLQPEDFATYYCQQSYITWTFGQGTRLEIK
notes: human
B4: 8DC3.1 scFv (scFv, V domains shown)
VH: QVQLVQSRGGLVKPGGSLRLSCAASGFTFSSHSMNWVRQAPGKGLEWVSSISSSSSYIYYADSVKGRFTISRDNSKNSLYLQLNSLRAEDTAVYYCARDQGGGSVVGTNWFDPWGQGTLVTVSS
VL: SALTQPASVSGSPGQSVTISCTGTSSDVGGYNYVSWYQQHPGKAPKLMIYDVSKRPSGVPDRFSGSKSGNTASLTISGLQAEDEADYYCCSYAGRYTYVFGTGTKVTVL
notes: human
B5: 1C1 scFv (scFv, V domains shown)
VH: QVQLQESGSGLVKPSQSLSLTCAVSGGSISSGDYSWSWIRQPPGEGLEWIGYIFPRGSTYYNPSLRSRVTMSVDRSKNQFSLSLNSVTAADTAVYYCARTKMGAAEGVFDYWGQGTLVTVSS
VL: DIVMTQSPSTLSASVGDRVTITCRASQSVSTWLAWYQQKPGKAPNLLISEASNLESGVPSRFSGSGSGTEFTLTISSLQPDDFAIYYCQQYNSYVWTFGQGTKLEIK
notes: human
B6: 1C1.1 scFv (scFv, V domains shown)
VH: B5 VH
VL: EIVLTQSPSSLPASVGDRVTITCRASQSIGTYLNWYQHKPGSAPKLLINAASSLQSGVPSRFSGSGSGTDFTLTISSLQPDDFATYYCQQYNSYTWTFGQGTKVGIK
notes: human
B7: 1C2 scFv (scFv, V domains shown)
VH: QVQLQQSGAEVRKSGASVKVSCKTSGYTFTTYYIHWVRQAPGQGLEWMGMIDPRGGSASYAQRFQGRVTMTRDTSTTTVFLALNSLESNDTAVYYCARGGLPYQQLPLWGQGTLVTVSS
VL: not shown
notes: human
B8: 8DC7 scFv (scFv, V domains shown)
VH: QVQLVQSGGRLVRPGGSLRLSCAASGFVFSNYGMHWVRQAPGKGLEWVAFLTHGGTNKYYSDSVKGRLTISRDNAKSTLFLEVNSLRVEDTAIYYCVKEGQLDSKYYFDSWGQGTLVTVSS
VL: EIVLTQSPSSLSASVGDRVTITCRASQSISSYLAWYQQKPGKAPELLIYAASTLQSGVPSRFSGSGSGTDFTLTISSVQPEDFATYYCQQSYSTPFTFGQGTKVEIK
notes: human
B9: 8DC10 scFv (scFv, V domains shown)
VH: QVQLVQSGAEAKKPGASVKLSCQASGYTFTGYAIHWVRQAPGQRLEWLGWINCVNGNTKYSPKLPGRVTITRDTSATTAYLELNSLTSEDTAVYYCARSMLVAARVYYYYGMDVWGQGTMVTVSS
VL: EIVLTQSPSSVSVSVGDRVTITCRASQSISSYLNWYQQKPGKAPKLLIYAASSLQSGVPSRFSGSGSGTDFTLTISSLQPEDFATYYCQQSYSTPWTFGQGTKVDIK
notes: human
B10: 8DC8 scFv (scFv, V domains shown)
VH: B2 VH
VL: DIVMTQSPSTLSASVGDRVTITCRASQSINIWMAWYQQKPGKAPKLLVYKASSLESGVPSRFSGSGSGTEFTLTISSLQPDDFATYYCQQYNSYGTFGKGTKVEIK
notes: human
B11: 8DC8.3 scFv (scFv, V domains shown)
VH: B2 VH
VL: DIVMTQSPSSLSASVGDRVTITCRASQSVSRWLAWYQQKPGKPPKLLIYEASSLESGVPSRFSGSGSGTDFTLTITSLQPEDFATYYCQQYENLPPSTFGGGTKLEIK
notes: human
B12: 8D2 scFv (scFv, V domains shown)
VH: QVQLVQSGAEVKKPGESLKISCKGSGYSFTSYWIGWVRQMPGKGLEWMGIIYPGDSDTRYSPSFQGQVTISADKSISTAYLQWSSLKASDTAMYYCVSYSSLDAFDIWGQGTMVTVSS
VL: EIVLTQSPSSLSASVGDRVTITCQASQDISNSLCWYQQKPGKAPKLLIYDASNLETGVPSRFSGSGSGTDFIFTISSLQPEDIATYYCQQYDNLLRVFGGGTKLEIK
notes: human
B13: 8DC6 scFv (scFv, V domains shown)
VH: EVQMVESGGGVVQPGRSLRLSCAASGFTFTSYAMHWVRQAPGKGLEWVAMISNDESNTKYADSVKGRFTISRDNSKNTLFLQMNSLRAEDTAMYSCARGGYYTRPLAFDTWGPGTTVTVSS
VL: DVVMTQSPSSVSASVGDRVTITCRASQGISSYLAWYQQKPGKVPKLLIYAASSLQRGVPSRFSGSGSGTDFTLTISRLQPEDVATYYCQKYNSAPLTFGGGTKVEIK
notes: human

One assay concerns the target T1, BoNT/D. In words: yeast scFv FACS.
In the case of B1, the binding result is “no binding (tested: ~1 µM)”.

For B2, the binding result is “binds”.

For B3, the binding result is on record as “no binding (tested: ~1 µM)”.

Consider B4, for which the binding result is “binds”.

Consider B5, for which the binding result is reported as “no binding (tested: ~1 µM)”.

Turning to B6, the binding result was “no binding (tested: ~1 µM)”.

As for B7, the binding result is listed as “no binding (tested: ~1 µM)”.

For B8, the binding result is “binds”.

B9: the binding result is listed as “binds”.

The target in a further assay is T2, BoNT/C1 holotoxin. In words: yeast scFv FACS.
As to B2, the binding result is on record as “no binding (tested: ~1 µM)”.

On to B10, for which the binding result is reported as “no binding (tested: ~1 µM)”.

For B11, the binding result is reported as “no binding (tested: ~1 µM)”.

As to B12, the binding result is “no binding (tested: ~1 µM)”.

Consider B4, for which the binding result is recorded as “no binding (tested: ~1 µM)”.

In the case of B13, the binding result was “no binding (tested: ~1 µM)”.

Consider B8, for which the binding result is reported as “no binding (tested: ~1 µM)”.

Turning to B9, the binding result is “no binding (tested: ~1 µM)”.

Another assay has as its target T2, BoNT/C1 holotoxin. Nature of the assay: yeast scFv FACS. This is another data set of the same source.
Molecule B3 gave a Kd of 2 nM.

For B5, the affinity, expressed as Kd, was 0.5 nM.

The molecule B6 gave a Kd of 0.15 nM.

Turning to B7, binding was characterised by a dissociation constant (Kd) of 24 nM.

What is called Kd is the equilibrium constant for the complex coming apart.

The record behind these values is patent US20220089784A1 (University of California, published 2022).
